Substitutions are numbered along the chain they refer to.
T1: rat AILIM (rat) (UniProt Q9R1T7)
T1 sequence (looked up): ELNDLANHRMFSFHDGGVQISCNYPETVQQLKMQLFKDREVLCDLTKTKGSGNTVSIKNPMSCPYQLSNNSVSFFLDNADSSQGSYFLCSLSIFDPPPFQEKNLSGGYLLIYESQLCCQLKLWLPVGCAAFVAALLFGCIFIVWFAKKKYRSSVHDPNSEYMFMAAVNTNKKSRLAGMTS

T2: human AILIM-IgFc (recombinant chimeric antigen of the extracellular region of human AILIM and the constant region (Fc) of human IgG1) (human) (UniProt Q9Y6W8)
T2 sequence (biotin-labeled in the inhibition ELISA of Example 14, looked up): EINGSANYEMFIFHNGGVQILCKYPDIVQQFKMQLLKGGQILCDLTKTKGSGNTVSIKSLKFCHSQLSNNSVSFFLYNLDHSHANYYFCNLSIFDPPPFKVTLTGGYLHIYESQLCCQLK

T3: mouse AILIM (mouse) (UniProt Q9WVS0)
T3 sequence (looked up): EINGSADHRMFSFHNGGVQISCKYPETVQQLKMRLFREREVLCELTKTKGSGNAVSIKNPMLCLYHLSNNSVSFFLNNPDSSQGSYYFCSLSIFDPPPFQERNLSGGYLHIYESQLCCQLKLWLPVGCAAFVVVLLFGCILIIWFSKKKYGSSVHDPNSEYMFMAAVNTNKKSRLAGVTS

B1: human anti-human AILIM monoclonal antibody JMab-138 (clone AII289) (antibody, from another filing, human IgG2, V domains shown)
VH: EVQLVESGGGLVQPGGSLRLSCAASGFTFSSYDMHWVRQATGKGLEWVSAIGTAGDTYYPGSVKGRFTISRENAKNSLYLQMNSLRAGDTAVYYCVRDNRKVTHEHYYYYGMDVWGQGTTVTVSS
VL: EIVLTQSPGTLSLSPGERATLSCRASQNIRSSYLAWYQQKPGQAPGLLIYGASSRATGIPDRFSGSGSGTDFTLTISRLEPEDFAVYYCQQFGSSPMCSFGQGTKLEIKR
B2: human anti-human AILIM monoclonal antibody JMab-139 (clone AII394) (antibody, from another filing, human IgG2, V domains shown)
VH: B1 VH with N99K, K101T
VL: B1 VL with N28S, R30S, Y33S, Y50F

Experiments:
[1] = target: human AILIM (activation inducible lymphocyte immunomodulatory molecule) (human) (UniProt Q9Y6W8); experiment: cell ELISA on recombinant CHO cells overexpressing human AILIM; given as ED50
rat AILIM (rat) = target: T1, rat AILIM (rat); experiment: cell ELISA on recombinant CHO cells overexpressing rat AILIM; given as ED50
[2] = target: T2, human AILIM-IgFc (recombinant chimeric antigen of the extracellular region of human AILIM and the constant region (Fc) of human IgG1) (human); experiment: SPR, Biacore X; human AILIM-IgFc immobilised on sensor chip, antibody in flow
mouse AILIM (mouse) = target: T3, mouse AILIM (mouse); experiment: cell ELISA on recombinant CHO cells overexpressing mouse AILIM; given as ED50

| Binder | EC50 [1] [µg/mL] | EC50 (rat AILIM (rat)) [µg/mL] | Kd [2] [pM] | koff [2] [s⁻¹] | EC50 (mouse AILIM (mouse)) [µg/mL] |
| --- | --- | --- | --- | --- | --- |
| B1 | 0.0105 | 0.057 | 1100 | 4.2e-05 | 0.053 |
| B2 | 0.0106 | 0.09 | 770 | 2.4e-05 | 0.06 |
